This passage reports Young's modulus of FUS + DNAJB6 condensates by AFM, 2 h (~31 kPa) to 48 h; FUS-only condensates rise from ~9 kPa to ~25,000 kPa and tie line gradient (µM DNAJB6 / µM FUS) results from article PMC12638947.

The target in test [1] is FUS-mEmerald (UniProt P35637).
Test [2] concerns the target FUS-mEmerald (UniProt P35637). Briefly: tie line gradient analysis (FUS dilute phase concentration by confocal detection in a microfluidic flow cell); mEmerald-tagged FUS; DNAJB6 varied 0-4 µM; FUS dilute phase concentration read after phase separation.

UniProt P35637, sequence (P35637 whole entry): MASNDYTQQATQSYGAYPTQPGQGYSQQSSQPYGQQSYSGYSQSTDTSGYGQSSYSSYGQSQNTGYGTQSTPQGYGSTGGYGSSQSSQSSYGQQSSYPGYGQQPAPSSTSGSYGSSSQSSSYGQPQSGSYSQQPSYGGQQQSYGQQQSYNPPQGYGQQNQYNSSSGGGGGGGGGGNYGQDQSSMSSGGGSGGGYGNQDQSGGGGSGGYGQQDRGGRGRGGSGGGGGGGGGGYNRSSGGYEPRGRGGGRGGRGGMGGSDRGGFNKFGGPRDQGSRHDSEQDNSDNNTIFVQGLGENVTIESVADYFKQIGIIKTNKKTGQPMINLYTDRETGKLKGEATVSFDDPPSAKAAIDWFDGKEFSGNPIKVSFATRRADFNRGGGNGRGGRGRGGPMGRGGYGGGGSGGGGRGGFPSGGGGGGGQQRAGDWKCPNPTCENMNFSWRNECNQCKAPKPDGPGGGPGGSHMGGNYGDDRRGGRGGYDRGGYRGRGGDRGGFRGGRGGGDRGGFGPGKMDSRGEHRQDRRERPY

Take “purified recombinant human DNAJB6 (from UniProt O75190 1-326) (natural protein)”: in test [1], the Young's modulus of FUS + DNAJB6 condensates by AFM, 2 h (~31 kPa) to 48 h; FUS-only condensates rise from ~9 kPa to ~25,000 kPa was 40 kPa. The tie line gradient (µM DNAJB6 / µM FUS) in test [2] amounted to 3.
